From paper PMC3441633 (PLoS ONE, 2012)

Biological target: T1, Ras (aa 1-166), bacterially expressed and purified (H-Ras) (UniProt P01112 1-166)
T1 construct: H-Ras aa 1-166 (all Ras constructs were the H-Ras isoform); Used loaded with GDP, loaded with GTPγS, or nucleotide-free (incubated with EDTA without added nucleotide); the nucleotide state is told by the assay; also called Ras 1-166; Ras-GDP; source: E. coli BL21 (pQlink Ras 1-166), purified on nickel beads, His tag cleaved with TEV protease
Assay: pull-down; nucleotide-free Ras: 250 nM Ras with 850 nM GST protein on glutathione beads in Loading Buffer (15 mM EDTA, 5 mM MgCl2), 30 min at 30°C, no added nucleotide
Details: both partners purified

binding result: binds
B1: GST-PI3KC2β-RBD (aa 368-463) (domain or fragment, UniProt O00750 368-463, looked up)
chain: SPEHLGDEVNLKVTVLCDRLQEALTFTCNCSSTVDLLIYQTLCYTHDDLRNVDVGDFVLKPCGLEEFLQNKHALGSHEYIQYCRKFDIDIRLQLME
notes: also called RBD of PI3KC2β; source: E. coli BL21 (DE3), purified on Glutathione Sepharose beads
